Patent US9168297B2, “Regulation of skin pigmentation by neuregulin-1 (NRG-1)” (The United States of America, as Represented by the …, priority 2010, dated 2015)

Key:
Type in all cases: cell-based, human
ERBB3 = ERBB3 protein level by western blotting in melanocytes; conditions: NRG-1 50 ng/ml, 5 days
Experimental: (§1) FIGS. 7A and 7B are digital images illustrating expression of ERBBs after NRG-1 treatment. FIG. 7A) HEM-LP and HEM-DP melanocytes were treated with or without NRG-1 (50 ng/ml) for 5 days, and levels of ERBB2, ERBB3 or ERBB4 were detected by western blotting. Results shown are representative of three studies. FIG. 7B) Expression of ERBB2 was examined in HEM-LP and in HEM-DP melanocytes after 1 or 9 days or treatment with NRG-1 compared to vehicle-treated controls; the results are representative of two independent studies.
Fibroblast cultures in 100-mm dishes were solubilized in appropriate volumes of M-PER mammalian protein extraction reagent (Pierce Biotechnology, Rockford, Ill.) containing a Protease Inhibitor mixture (Roche, Mannheim, Germany) and phosphatase inhibitors. The protein concentration of each extract was measured using a BCA protein assay kit (Pierce, Rockford, Ill.). Cell extracts (20 μg) were separated on 8-16% gradient SDS polyacrylamide gels (Invitrogen, Carlsbad, Calif.), after which proteins were transferred to PVDF membranes (Invitrogen, Carlsbad, Calif.). […] Antigen-antibody complexes were detected using an ECL-plus Western blotting detection system (GE Healthcare). […]

phospho-Akt (Ser473) = test: Phosphorylated-Akt levels by western blotting in melanocytes; conditions: NRG-1 50 ng/ml
Experimental: FIGS. 5A-5D illustrate the effect of NRG-1 on the proliferation of human melanocytes in culture. FIG. 5A) Lightly-pigmented (HEM-LP) and FIG. 5B) darkly-pigmented (HEM-DP) melanocytes were treated with or without NRG-1 (50 ng/ml) for 1, 3, 5 or 9 days in 10 cm culture dishes and total cell numbers were counted. Results are the averages of three studies±SD. FIG. 5C) Phosphorylated-Akt levels were detected by western blotting for HEM-LP and HEM-DP melanocytes treated with NRG-1 (50 ng/ml) for 5 days compared to vehicle treated controls; GAPDH is used as a loading control. FIG. 5D) HEM-DP melanocytes were treated with NRG-1 (50 ng/ml) for 1, 3 or 5 days and p-Akt levels were detected by western blotting compared to vehicle treated controls; GAPDH is used as a loading control. Results shown are representative of three studies; statistically significant differences are indicated.
(§2) Fibroblast cultures in 100-mm dishes were solubilized in appropriate volumes of M-PER mammalian protein extraction reagent (Pierce Biotechnology, Rockford, Ill.) containing a Protease Inhibitor mixture (Roche, Mannheim, Germany) and phosphatase inhibitors. The protein concentration of each extract was measured using a BCA protein assay kit (Pierce, Rockford, Ill.). Cell extracts (20 μg) were separated on 8-16% gradient SDS polyacrylamide gels (Invitrogen, Carlsbad, Calif.), after which proteins were transferred to PVDF membranes (Invitrogen, Carlsbad, Calif.). Membranes were blocked for 1 hour in PBS or Tris buffered saline (TBS) containing 0.1% Tween 20 and 5% (w/v) nonfat dry milk powder and were incubated overnight at 4° C. with the primary antibody in PBS containing 0.1% Tween 20 and 2.5% (w/v) nonfat dry milk powder or in 0.1% Tween-TBS with 5% BSA, depending on the antibody. The following primary antibodies were used: anti-human DKK-1 (0.2 μg/ml), anti-human DKK-3 (0.1 μg/ml), anti-human bFGF (0.1 μg/ml), anti-human SCF (0.1 μg/ml), anti-human mouse monoclonal ERBB3 (1 μg/ml) and anti-human mouse monoclonal ERBB4 (2 μg/ml) antibodies from R&D Systems, neuregulin-1α/β1/2 (C-20) (1:500) and GAPDH (FL-335) (1:10,000) antibodies from Santa Cruz Biotechnology, ERBB2 rabbit monoclonal (1:1000) and phospho-Akt (Ser473) (1:1000) antibodies from Cell Signaling Technology. Membranes were then incubated with an HRP-linked anti-rabbit antibody (GE Healthcare) at 1:10,000 dilution or with an anti-goat antibody (DAKO) at 1:2,000 dilution at room temperature for 1 hour. Antigen-antibody complexes were detected using an ECL-plus Western blotting detection system (GE Healthcare). Each study was performed at least in triplicate. […]

ERBB2 = ERBB2 protein level by western blotting in melanocytes
Experimental: as §1
FIGS. 8A and 8B are digital images illustrating the mechanism of ERBB2 abrogation after NRG-1 treatment. FIG. 8A) ERBB2 mRNA levels in HEM-LP and in HEM-DP melanocytes were detected by RT-PCR after treatment with or without NRG-1 (50 ng/ml) for 1 day. FIG. 8B) MG132 (120 nM) was added to the melanocyte culture medium to inhibit proteasomal degradation during treatment of HEM-LP and HEM-DP melanocytes with or without NRG-1 (50 ng/ml). Proteins were extracted for each sample, and ERBB2 levels were detected by western blotting. Results are representative of three studies.
as §2, with “Healthcare).” for “Healthcare). Each study was performed at least in triplicate.”

B1: NRG-1: commercially available recombinant human neuregulin-1 (rhNRG-1-β1, R&D Systems), SEQ ID NO: 11 (protein)
chain: TSHLVKCAEKEKTFCVNGGECFMVKDLSNPSRYLCKCPNEFTGDRCQNYVMASFYKHLGIEFMEAEELYQK
ERBB3; HEM-DP
  ERBB3 expression level: not affected
ERBB3; HEM-LP
  ERBB3 expression level: no detectable change
phospho-Akt (Ser473); HEM-DP, day 1, low confluency, vs control
  Levels of p-Akt: equally high
phospho-Akt (Ser473); HEM-DP, day 3 through day 5, control decreased by day 3
  Levels of p-Akt, time course: maintained higher levels of p-Akt through day 5
phospho-Akt (Ser473); HEM-DP, day 5, vs control
  Levels of p-Akt: significantly higher
phospho-Akt (Ser473); HEM-LP, day 5, vs control
  Levels of p-Akt: significantly higher
ERBB2; HEM-LP and HEM-DP, NRG-1 50 ng/ml, 5 days
  Expression of ERBB2: almost completely undetectable
ERBB2; both types of melanocytes, NRG-1, 1 day
  Level of ERBB2: significantly decrease
ERBB2; both types of melanocytes, NRG-1, day 3, lasted until day 9
  ERBB2 expression: completely disappeared
